Experiment [1] concerns the target T1, human FcγRI extracellular domain, His-tagged GST fusion (human, UniProt P12314 16-292).
T1 construct: extracellular domain; also called hFcgRI; FcγRIA; not shown: C-terminal Gly/His6/GST tag
Briefly: ELISA, FcγR-His-GST captured by anti-GST.

Experiment [2] has as its target T2, human BR3 extracellular domain (human, UniProt Q96RJ3 1-78).
T2 construct: extracellular domain; also called BR3 ECD; Br3 ECD WT
In words: BIAcore, BR3 ECD on chip, IgG in solution, bivalent analyte model.

The target of experiment [3] is T2, human BR3 extracellular domain. Briefly: BIAcore, BR3 ECD on chip, IgG in solution, 1:1 Langmuir model. For orientation: Surface plasmon resonance follows binding to a sensor surface in real time, without labels.
Experiment [4] has as its target T3, mouse FcγRII extracellular domain, His-tagged GST fusion (mouse, UniProt P08101 30-210).
T3 construct: extracellular domain; also called Mouse II; not shown: His tag and GST
T3 sequence (looked up): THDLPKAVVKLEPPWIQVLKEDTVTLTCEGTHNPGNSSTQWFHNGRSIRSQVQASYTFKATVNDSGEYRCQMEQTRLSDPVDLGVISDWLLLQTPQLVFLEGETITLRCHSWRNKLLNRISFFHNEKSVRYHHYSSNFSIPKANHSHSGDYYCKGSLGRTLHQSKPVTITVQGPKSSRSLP
Briefly: ELISA, captured FcγR-GST.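 Also: antibody variants applied as dilution series to receptor wells, with retained antibody read out via an HRP-linked goat F(ab′)2 fragment recognizing human Fab′2.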 For orientation: ELISA stands for enzyme-linked immunosorbent assay.

The target of experiment [5] is T4, human FcγRIIb extracellular domain, His-tagged GST fusion (human, UniProt P31994 43-217).
T4 construct: extracellular domain; also called hFcgRIIb; CD32B; not shown: C-terminal Gly/His6/GST tag
T4 sequence (looked up): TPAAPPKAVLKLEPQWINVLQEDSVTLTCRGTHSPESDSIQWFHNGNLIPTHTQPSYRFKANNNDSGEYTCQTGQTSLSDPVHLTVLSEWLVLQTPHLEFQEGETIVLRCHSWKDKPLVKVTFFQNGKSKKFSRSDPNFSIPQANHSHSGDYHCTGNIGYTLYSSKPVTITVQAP
Briefly: ELISA, captured FcγR-GST.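 Also: antibody variants applied as dilution series to receptor wells, with retained antibody read out via an HRP-linked goat F(ab′)2 fragment recognizing human Fab′2.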

Experiment [6] has as its target T5, mouse FcγRIII extracellular domain, His-tagged GST fusion (mouse, UniProt P08508 31-215).
T5 construct: extracellular domain; also called Mouse III; not shown: His tag and GST
T5 sequence (looked up): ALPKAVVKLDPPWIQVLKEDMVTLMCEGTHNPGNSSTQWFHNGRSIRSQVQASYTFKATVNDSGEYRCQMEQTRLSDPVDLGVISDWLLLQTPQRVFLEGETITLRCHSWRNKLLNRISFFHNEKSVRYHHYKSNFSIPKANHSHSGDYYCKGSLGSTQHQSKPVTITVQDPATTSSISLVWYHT
In words: ELISA, captured FcγR-GST.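 Also: antibody variants applied as dilution series to receptor wells, with retained antibody read out via an HRP-linked goat F(ab′)2 fragment recognizing human Fab′2.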

Experiment [7] concerns the target T1, human FcγRI extracellular domain, …. Briefly: ELISA, captured FcγR-GST.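 Also: antibody variants applied as dilution series to receptor wells, with retained antibody read out via an HRP-linked goat F(ab′)2 fragment recognizing human Fab′2.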
In experiment [8] the target is T6, mouse FcγRI extracellular domain, His-tagged GST fusion (mouse, UniProt P26151 25-297).
T6 construct: extracellular domain; also called Mouse I; mFcγRI; not shown: His tag and GST
T6 sequence (looked up): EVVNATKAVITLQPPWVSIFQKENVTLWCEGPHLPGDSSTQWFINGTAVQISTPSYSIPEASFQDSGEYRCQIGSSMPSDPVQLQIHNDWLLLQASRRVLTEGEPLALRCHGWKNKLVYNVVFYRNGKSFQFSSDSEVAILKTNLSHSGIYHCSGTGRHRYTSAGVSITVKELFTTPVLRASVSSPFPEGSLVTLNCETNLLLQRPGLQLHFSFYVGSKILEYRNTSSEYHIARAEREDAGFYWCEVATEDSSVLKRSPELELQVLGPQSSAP
In words: ELISA, captured FcγR-GST.

In experiment [9] the target is T7, human FcγRIIa extracellular domain, His-tagged GST fusion (human, UniProt P12318 34-217).
T7 construct: extracellular domain; also called hFcgRIIa; CD32A; not shown: C-terminal Gly/His6/GST tag
T7 sequence (looked up): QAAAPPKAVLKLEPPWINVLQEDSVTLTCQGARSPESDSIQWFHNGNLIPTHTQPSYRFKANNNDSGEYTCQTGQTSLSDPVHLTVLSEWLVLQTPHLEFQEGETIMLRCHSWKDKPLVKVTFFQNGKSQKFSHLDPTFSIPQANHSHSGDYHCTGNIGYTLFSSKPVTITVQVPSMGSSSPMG
In words: ELISA, captured FcγR-GST.

In experiment [10] the target is T8, human BR3 on the cell surface (BJAB cells; primary human B cells) (human, UniProt Q96RJ3 1-184).
T8 construct: whole, on cells; also called BAFF-R; cell surface BR3
Briefly: direct binding to BJAB cells, anti-human IgG Fc-HRP.

Experiment [11] deals with T8, human BR3 on the cell surface (BJAB …). In words: competition with 25 nM FLAG-BAFF on BJAB cells.
In experiment [12] the target is T4, human FcγRIIb extracellular domain, …. In words: ELISA, FcγR-His-GST captured by anti-GST, complexed IgG.
Experiment [13] deals with T7, human FcγRIIa extracellular domain, …. Described as above.
In experiment [14] the target is T2, human BR3 extracellular domain. In words: BIAcore, IgG on chip, BR3 ECD in solution, 1:1 Langmuir model.
The target in experiment [15] is human FcγRIII (CD16) on NK cells (human, UniProt P08637 17-254). In words: cell-based or functional assay.
Experiment [16] addresses T3, mouse FcγRII extracellular domain, …. Briefly: Fcγ receptor ELISA; bar = fold change in binding relative to Herceptin (EC50 Herceptin/EC50 sample), log axis 0.1-100.
The target in experiment [17] is T9, human FcγRIIIa (F158) extracellular domain, His-tagged GST fusion (human, UniProt P08637 17-208).
T9 construct: extracellular domain; also called hFcgRIII (F158); FcγRIII (F158 allele); not shown: C-terminal Gly/His6/GST tag
The experiment is described as above.

Experiment [18] addresses T5, mouse FcγRIII extracellular domain, …. Described as above.
The target in experiment [19] is T1, human FcγRI extracellular domain, …. The description is as above.
Experiment [20] has as its target T6, mouse FcγRI extracellular domain, …. The description is as above.
For experiment [21], the target named is T8, human BR3 on the cell surface (BJAB …). In words: BJAB binding assay.

B1: Hu9.1RF IgG1 (antibody)
heavy: not shown
light: DIQMTQSPSSLSASVGDRVTITCKSSQSLLYSSNQNNYLAWYQQKPGKAPKLLIYWASTRESGVPSRFSGSGSGTDFTLTISSLQPEDFATYYCQQYYTYPYTFGQGTKVEIKRTVAAPSVFIFPPSDEQLKSGTASVVCLLNNFYPREAKVQWKVDNALQSGNSQESVTEQDSKDSTYSLSSTLTLSKADYEKHKVYACEVTHQGLSSPVTKSFNRGEC
notes: Humanized IgG1 with normal (fucosylated) glycans; also called WT; WT(9.1RF)
The term koff denotes the first-order rate constant of dissociation. A lower koff goes with slow dissociation. For orientation: kon means a measure of how fast the partners come together. Low readings indicate slow association, high ones fast association. Broadly, the EC50 is the concentration giving half of the maximal effect. A higher EC50 goes with lower potency in that assay. For orientation: IC50 means the concentration that gives 50% inhibition. A lower IC50 goes with higher potency. On to B1, for which the “binding relative to 9.1-RF” value in experiment [1], in [12] and in experiment [13] was 1 throughout. Also, the Kd came out at 0.52 nM in [2], 0.03 nM in experiment [3] and 0.25 nM in experiment [14]. Also, the figures for the koff in [2], in experiment [3] and in [14] were 0.000339 s⁻¹, 5.21e-05 s⁻¹ and 0.000253 s⁻¹, respectively. The kon in experiment [2] is 658000 M⁻¹ s⁻¹; in experiment [3], 1.99e+06 M⁻¹ s⁻¹; in [14], 995000 M⁻¹ s⁻¹. Also, the “fold improvement in binding vs Herceptin (EC50herceptin/EC50sample)” value stood at 0.7 fold in [4]; 0.7 fold in [5]; 0.8 fold in experiment [6]; 1 fold in experiment [7]; 1.2 fold in [8]; 2.3 fold in experiment [9]. Further, it took 0.92 nM to reach a half-maximal effect in experiment [10] (EC50). The same molecule came in with an IC50 in experiment [11] of 8.8 nM.

B2: afucosylated Hu9.1RF IgG1 (antibody)
heavy: not shown
light: DIQMTQSPSSLSASVGDRVTITCKSSQSLLYSSNQNNYLAWYQQKPGKAPKLLIYWASTRESGVPSRFSGSGSGTDFTLTISSLQPEDFATYYCQQYYTYPYTFGQGTKVEIKRTVAAPSVFIFPPSDEQLKSGTASVVCLLNNFYPREAKVQWKVDNALQSGNSQESVTEQDSKDSTYSLSSTLTLSKADYEKHKVYACEVTHQGLSSPVTKSFNRGEC
modifications: N-linked Fc carbohydrate lacks fucose (made in a cell line lacking fucosyltransferase; 100% afucosylated by paragraph 557)
notes: also called AF Hu9.1RF IgG1; Hu9.1RF IgG1 AF
In experiment [2], B2 registered a Kd of 0.28 nM, a koff of 0.000149 s⁻¹ and a kon of 532000 M⁻¹ s⁻¹. In [3], the Kd was 0.04 nM, the koff stood at 5.41e-05 s⁻¹ and the kon turned out to be 1.49e+06 M⁻¹ s⁻¹. In experiment [15], the “ADCC EC50 on BJAB cells with NK cells, improvement over 2% afucosylated Hu9.1RF IgG1” value was above 6 fold and the “ADCC percent cytotoxicity on BJAB cells with NK cells, increase over 2% afucosylated Hu9.1RF IgG1” value is above 3 fold. This molecule yielded an EC50 in [10] of 0.49 nM. In addition, in [11], the IC50 stood at 3.6 nM. Besides, in experiment [14], the Kd was 0.23 nM, the koff is 0.000199 s⁻¹ and the kon was found to be 852000 M⁻¹ s⁻¹.

B3: V3(5) (antibody, human IgG1, kappa)
heavy chain: EVQLVESGGGLVQPGGSLRLSCAASGFTISSSSIHWVRQAPGKGLEWVAWVLPSVGFTDYADSVKGRFTISADTSKNTAYLQMNSLRAEDTAVYYCARRVCYNRLGVCAGGMDYWGQGTLVTVSSASTKGPSVFPLAPSSKSTSGGTAALGCLVKDYFPEPVTVSWNSGALTSGVHTFPAVLQSSGLYSLSSVVTVPSSSLGTQTYICNVNHKPSNTKVDKKVEPKSCDKTHTCPPCPAPELLGGPSVFLFPPKPKDTLMISRTPEVTCVVVDVSHEDPEVKFNWYVDGVEVHNAKTKPREEQYNATYRVVSVLTVLHQDWLNGKEYKCKVSNAALPAPIAATISKAKGQPREPQVYTLPPSREEMTKNQVSLTCLVKGFYPSDIAVEWESNGQPENNYKTTPPVLDSDGSFFLYSKLTVDKSRWQQGNVFSCSVMHEALHNHYTQKSLSLSPG
light chain: DIQMTQSPSSLSASVGDRVTITCRASQDVSTAVAWYQQKPGKAPKLLIYSASFLYSGVPSRFSGSGSGTDFTLTISSLQPEDFATYYCQQSQISPPTFGQGTKVEIKRTVAAPSVFIFPPSDEQLKSGTASVVCLLNNFYPREAKVQWKVDNALQSGNSQESVTEQDSKDSTYSLSSTLTLSKADYEKHKVYACEVTHQGLSSPVTKSFNRGEC
notes: also called V3-46s S298A/K326A/E333A/K334A
With B3, the binding result in [16], in [17], in experiment [18], in [19] and in [20] was “binds” each time.

B4: V3-1m (antibody, mouse IgG2a, V domains shown)
VH: EVQLVESGGGLVQPGGSLRLSCAASGFTISSNSIHWVRQAPGKGLEWVAWITPSDGNTDYADSVKGRFTISADTSKNTAYLQMNSLRAEDTAVYYCARRVCYNRLGVCAGGMDYWGQGTLVTVSS
VL: DIQMTQSPSSLSASVGDRVTITCRASQDVSTAVAWYQQKPGKAPKLLIYSASFLYSGVPSRFSGSGSGTDFTLTISSLQPEDFATYYCQQSRITPPTFGQGTKVEIKR
notes: also called mV3-1
As for B4, in [21], the binding result is listed as “binds”.

B5: V3-1h (antibody, human IgG1, V domains shown)
VH: EVQLVESGGGLVQPGGSLRLSCAASGFTISSNSIHWVRQAPGKGLEWVAWITPSDGNTDYADSVKGRFTISADTSKNTAYLQMNSLRAEDTAVYYCARRVCYNRLGVCAGGMDYWGQGTLVTVSS
VL: DIQMTQSPSSLSASVGDRVTITCRASQDVSTAVAWYQQKPGKAPKLLIYSASFLYSGVPSRFSGSGSGTDFTLTISSLQPEDFATYYCQQSRITPPTFGQGTKVEIKR
Take B5: the binding result in experiment [21] was “binds”.

Source of the values: patent US20100166741A1 (Genentech, published 2010).
